{
  "source": "paper PMC13227277",
  "about": "“Targeting CIRP and IL-6R-mediated microglial inflammation to improve outcomes in intracerebral hemorrhage” (Journal of Advanced Research, 2025)",
  "molecules": {"B1": {"name": "recombinant human CIRP (cold-inducible RNA-binding protein) (natural protein, UniProt Q14011 1-172, looked up)", "chain": "MASDEGKLFVGGLSFDTNEQSLEQVFSKYGQISEVVVVKDRETQRSRGFGFVTFENIDDAKDAMMAMNGKSVDGRQIRVDQAGKSSDNRSRGYRGGSAGGRGFFRGGRGRGRGFSRGGGDRGYGGNRFESRSGGYGGSRDYYSSRSQSGGYSDRSSGGSYRDSYDSYATHNE", "notes": "UniProtKB Q14011 is printed for the docking; also called rhCIRP; human CIRBP; source: recombinant"}},
  "system": "IL-6R-overexpressing HEK-293 T cells",
  "test": "IL-6R mRNA/protein expression in IL-6R-overexpressing HEK-293 T cells",
  "type": "cell-based, human",
  "conditions": "CIRP 1 μg/mL for 24 h",
  "experimental": "The overexpression plasmid for IL-6R was constructed by GenScript Biotech using a pcDNA3.1(+)-3xFLAG-P2A-EGFP vector with a broad-spectrum promoter, non-fusion EGFP fluorescence, and Neo (G418) resistance. The final construct was pcDNA3.1(+)-IL6r-3xFLAG-P2A-EGFP, and a control plasmid (pcDNA3.1(+)-3xFLAG-P2A-EGFP) was also generated.\nHEK 293 T cells were cultured in six-well plates to 70–80 % confluence. Cells were divided into control and test groups. For transfection, solution A (plasmid diluted in Opti-MEM) and solution B (Lipofectamine 2000, Life Technologies, USA, diluted in Opti-MEM) were mixed at a 1:2 plasmid-to-lipofectamine ratio. After 6 h, the medium was replaced with DMEM, and GFP fluorescence was observed 24–48 h post-transfection to assess efficiency. Cells were divided into PBS, IL-6R, and CIRP (1 μg/mL for 24 h) groups for further analysis.\nRNA was extracted using TRIzol reagent (Invitrogen, 210901). RNA was reverse transcribed into cDNA using Novagen's R323-01 100RXN. qRT-PCR was performed to determine the mRNA levels of Nos2, Tnf, Rela, Mcr1, Arg1, Cirbp, […] and Il6. […]\nBrain tissue adjacent to the hemorrhagic striatum was homogenized in lysis buffer with protease inhibitors. […] The supernatant was collected for protein quantification using the BCA method. […]",
  "data": [
    {"molecule": "B1", "values": [
      {"measurement": "Il6 mRNA expression", "setting": "qRT-PCR n = 3–6", "result": "did not show a significant change between groups"},
      {"measurement": "Il6ra mRNA and protein expression", "setting": "qRT-PCR n = 3–6, western blot n = 9", "result": "significant upregulation of Il6ra mRNA and protein expression"}
    ]}
  ]
}
